Data: the DeepSol protein solubility set

assay: soluble on expression in E. coli; label from the status in PepcDB or PDB records

Sequence | soluble on expression in E. coli
MDNKVILVGGFHEIIELCEDNDIEIAGIIDNYLTNDTYWGYPIIGTDDKAKVLFETYKNVPVLITPDVPHVRYKLYHYYKSIGFQVASLISRDASISRSAIIGEGTIIQRGANLSSNIKIGQMVKVNTNANIMHDCLIGNYVTVAPNAVLLGKVEIDDKAYIGANATLLPSVKIGENVTVGAGSVVTKSVRLEHHHHHH | not soluble
MDNLLAQKKPINILLLGTDTGAMGRSWKGRTDTIMMMAINPKTNSTSIVSIPRDSNAIFPDFPQYGVTKINSAYTLGGVGETVKTLDKYYSVPIDGYIMINMGGLKKAIDQVGGIDVTSPLTFDNMGYHFQEGKTYHMDGKKALAFAQLRHGDPRQDYGRQDRDRRVVMALLKKSISPTTLLNTKFLNSISSEMQTDLTMNQMYKIGMDYRHATDNLSQDHAQGVSKQTQNPKFGTMEIEVVSRQERQRVSDKLRAALGLPKVRVAANSASYVMNQLEHHHHHH | soluble
MDNLLIQVTGKKRVVLFSPRDAQYLYLKGTKSEVLNIDNPDLAKYPLFSKARRYECSLEAGDVLFIPALWFHNVISEEFGVGVNIFWKHLPSECYDKTDTYGNKDPTAASRAAQILDRALKTLAELPEEYRDFYARRMVLHIQDKAYSKNSE | not soluble
MDNNLEIKDLEKIAKKVRYNIVKMVGLAKSGHPGGSLSATDIIVALYFKLMNYSPDNPYKKDRDRFVLSKGHAAPALYAVLSELGIIEEEELWKLRRLEGKLQGHPSMDTPGVEICTGSLGQGFSAAVGMALGCRLDKLNNYVYVLLGDGECQEGIVWEAAMAAAHYKLDNLIAFIDRNKLQIDGCTEDVMSLGDIKAKFEAFGWDVFEIDGHNFEEIINTVEKAKSMKNGKPKMIIAYTVKGKGVSFMENNVAFHGKAPNEEQLKQALEELSE | soluble
MDNPVKLDTPVSGWRAGDGSAANYRQVVNYPASSVNVAADQATTARIRGAIESQPKDRPATLVVNGVSMPLKVDADGSFDRPFAFPSGSNSVEVRNAAGQSRRVQFYHGGGGGEVPAKLRVLLSWDSDNTDLDLHLVTPDGDHVWYGNRSLANGATLDVDVTTGYGPEIIATPTPQKGPYLVYVNYFGGGYGSSEDGAEQAAQDLTTARITLVTEEGTPNEKQETFLVPMRKPGELTLVKRFSYPLEHHHHHH | soluble
MDNVDFSKDIRDYSGLELAFLGDAIWELEIRKYYLQFGYNIPTLNKYVKAKVNAKYQSLIYKKIINDLDEEFKVIGKRAKNSNIKTFPRSCTVMEYKEATALEAIIGAMYLLKKEEEIKKIINIVIKGELEHHHHHH | soluble
MDPDNRVRQRAVKTLGKRGNPDVLEDLMEALKDSRQPVQEAASEALRKIIAASDSVPVLVKALDATDRNVRKAAIEALWKAGTPEAIPPLLRELDDADWYLRSRAADALADIASPEAALGLIKVMDIHDSPVKKIIVNALGKIGTVEAVEGLVKALEDLEHHHHHH | soluble
MDPFRFQVEARAGRARVGRLFTPHGAVETPLFMPVGTAGSVKGLMPKDLEAIGSQVLLTNTYHLLLRPGPERVRALGGLHGFAGWKGPWLTDSGGFQVMSLGHMRRIDEEGVVFQSHLDGRLIKLTPERSIAVQEALGADLIMAFDECPPYPSPREYLEASLERTLRWLERSLKAKTRPDQALFGIAQGGTDPELRRRSTLETIRFDLPGYAIGGLAVGEPKEAMFAMVELSTRLLPEDRPRYLMGVGHPEDLVAAMGLGVDLFDCVYPTRTGRFGSALVPEGRLNLKNARFLEDRRPLEEGCDCYTCQTFGRAYLAHLVRAGEMLGGILLSLHNLRHLHRLTEAARQAIREGRYGDFAREFARRRFGREVPPWFREALAAGGHG | soluble
MDPKPINEGMLLEDHDHGMPEEEEITEDDMNGIHNIEEDTRTISEIAMELHHPNKSQVLLDQERFLPIANVVRIMKTQMDPQAKLAKDAKECAQECVSEFISFIASEAAEICNITKRKTITADDLLTAMEATGFDNYAEPMRIFLQKYRQAHKITGPIHRTHPDYVRPPQFQMDPFVRPLFFDTEQGRRCTETQYVINGSEIVKNAPLGEEWNEQTGTLNTRADGYYMEEPMEPMPMEEVEIEEHEEIIEQDSLGAIALEQQGQMQIYVDPKTKQHFAAKETPNGMELYPLIIQDTPLQLENVSGPNQFVMNMPDGRAIPHGMGQEEPQPVSSSSVMRKIGQNPSSYAQQHHHVSHVEQHDDVEYEEEEEVDQVEEDTVPVPIAPRPAATRVQPKRTPTKRKK | not soluble
MDPLEALQKHVQRPEEFPLREVTVSGISYVAFGDYAYKKDTETSLQIYGKSDEFYSLESLVVFLKYSHENHGVYVKEAAAAGVRAVTRIDRKNVTEYLQGDRTDFPALMNQVNPLSLRQLLHSSEPEAKKPRLDGEAAGEPMDTSTSAEICSKIPIFLKINSIFFPDEPQESAVSAAKKEVEIRALNDNLTKDRIAEMRRKRQSHREKGIVTIETTFPQKPDFLIKKFQFFSESLSTLTSASLPKTRIHKTRENVMLGARDLSNVLDIITSAQRQWDLNEKKEKVAAVHATNLSKDQSGAAGGQQQRSGYSRYAQEAFAHEKTKEIQTEGSFIGSNFSSIKQGHHAVQKAPDAPPGRPPLAKPIQLLTSSTATSSGSSAAQNGSKRTSRSPIIIVPSAMNTMINLYNVRDILQNFSYVPVDQRRKETNKKPVDLAIQRQKNGVTYNIRVIDNAEKLANDDWDRVIAVFVMGVAWQFKGWKWNGNPTDIFTHIPAFHFHVDQDKPVAQVMQWNVHKIPVSATKRHMDKARFSQVWETIENFVRKNKPHLTARLGL | not soluble
MDPLLTLLYIRHTLTSPWSSSEERDTAKAAMMEEMEKHNMAPYIRLVCEALGVPLDESKLAEMDAINAKKVAAFDARLKDAVDNLGDTEVRDVLQAKCDHYARIGDLEMCMKTNEECAAKTLATGPKLDLYFQRIRLGIAFSDNDIAAKGITDAHRLMKDGDWERRNRLRVYEGIYHVFIRDFQRGSTLLLDSITTFAAGELLTFQDFVFITVVASLPVLSRPELRKRIVYSPEVNRTGVDDVRELVNSIYDCQYNKVFPNLEVVCQHLRKVVYLSPHVSYFFREMRVLIFTQFLDSYSSVTLESMGAAFGIPVPALDSMLCTLISNERIACKVDRVDGSVETYRGDTTNFDYHRIVKSGDLLLNRIQKLSRLVDM | not soluble
MDPNKFREKEISKKEALELFEDNEIIFELFKFADSLRREEVGDIVTYVVNRNINFTNICVGNCRFCAFRANENDKHAYFLDIDEIAKRAVEAKKFGCTEVCIQGGLHPKIDTYYQAEILKAVHEATKPYGDIHIHAFSPMEVYFGAENAGLDIKEALKILKENGLNSMPGTAAEILDDDIRAELCPNKIKTKEWIYIIKEAHKLGIPTTATMMYGHIEEYKHWVNHLFIIKEIQEETNGFTEFVPLSFMHKYAPIYKEGKAKAGATGIEDLKVFAVSRIIFKGLIKNIQASWVKLGKKMVQVALRCGANDVGGTLIEESISRSAGAEHGVYMSVEEIRDMIKRVGLIPKERTTLYKILE | not soluble
MDRNEVRHAWDSVSETYAERRDPTGSDAALLEDLLERLPEAPTVLDVGCGDGARTLANLPPRSVGLDFSRAGLDLAAETVPDSRLVQGDMGSLPVTTDSVDAITAYHAVFHVQRDQHPEVYREFARVLRPGGTVLMTLPSGQFETVRRGWMGGSMFFSAPGRRATLDQLADAGFTETETVTATDPLGSDSEFVFATLADALEHHHHHH | soluble
MDSDEVRKRKEYAERKVKERHAALRKEAEEKRKHTVEHRERVQSVLKREQIALQKRMQQLNEDEERKKVTLAKQHEVSSRIAAITKSPKSFAFGSSTPRTLAYLDNLPKSEQQYDKKLRPLDQGPSQTTSPTSTTSNTTKMGRLSMTPQRAPPASHRPAPAMASMTTSMYVTSSAPSTRQAKSISKPAAVTTKKVGSMMTQSVYTPTSRPATSSRLTMKQPARGASTSAARPNTATPSSSNNRRSMDQRKPPMPRKLPFGKPEAARKSASPVAAQEPTAPVVVVAPVEAIPEVPAVQEEVLTVEEPAAPAREAVVEEAPEAVVEQEEITVAPEAVVAEEQQIAPEATPTVIEEHHNEVTVAPEAPEIQEPSEPATEPIPEPNEPKDEEIQRNEEMFHEDTSESHLESSTNTSLADELISIGIDQSQEILPSKPEILELHYPLVEEQNAVIAPVGAGEGSGVNDLIGVFGNDFINQNQPPPQQQQQQQRLVQFDEDTDSGKASPTSSETSSTTDEVTPRGAIEEEAAAEKITAPRVLPIVRSAEDIARKEKEIRESEERKSRLAAILAKSRGMASPMTNTLPPTADDIKGRCSHLHPLKRLPKRHRMSLEEQMMCSPVSLR | not soluble
MDSVIQKRIFVGNIFHNADDCYSELLDRFGKFGDCQDFQFEKHNHFAFIDIRFNDEADFNKLRKSFNNVKFKGNILKVDEAKPNWESTWAVQHAKDLKEDIILNAKMKKKNWQHYKKMENVAKSWKDHKEVIAGRMREAPRKRSQLRNITFRINVNGSLKVYKCYKTKLWGYERNKELNDLVYKFTNNFWKNGYNHIVDRLDYSRAVKTVRFKNGLKQLTVSKDENVCSGEMDSDENMSEEEKEKNNVILNDLLKDFDFDKPMTLNDSDEELLTEQRKGEEEEEEEEEKEVNAPEYENVNKTKDQSTLPQEKPEERKEQDEGDGQEDNEFIPTFTKEIGQGTISNTETLRNLFNPNEAEPVSQFKLIEDSDNDIDHAKDVDVNQLEEEVSKSSDTLGLTSAPVPHVSRDKDNKNFLFFPHLQSPFLVGQTQLSKVRAPGRETMLSNWDEEFWANRGNWTRDMRRKMKDALKHRKRKQSKSGLLL | not soluble
MDSYGYVETLGLVTAIEAADAALKAANVTLMNCYYVKGGIVTIEVAGDVSAVTAAVDAATESAKRLGNFLSSNVIARIDSETKKILISDLGNKEKKQKIENKSVVKDTTIEKKATEKISTEEITEEIINESKNENFDEEQNKEINEKVTEIAEVYEKVENPAEKLDQNNDIQEKIEVFEIEVEKEDDEAEKLKKQYQGMKVIDLKKMVNSCKLGYTWNQIKTMPKKKLIEILIKNNKEEAQWQH | not soluble
MDTKVVPKISEKICEKFANIINKKPQKKGKEYKIGVDLGTANVVVAVLNENNEPVAGAMKSAQVVKDGVVVDFVGAKEIVKRMVDFLNEELEGKLRVAACAIPPGTGEGVSKATKYVVEEAGLEVIKVVDEPTAAAKLLEIMDGIVVDIGGGTTGISVLKDGKVVYVADEPTGGTHFTLVLAGHFNISFEEAEKIKLDVQRQKLLTPILKPCMEKVAEIIKRHTFSFDNIDTIYLVGGASALHGLKEVVENTTRKKVIVPQYPIFITPLGIALSCEKG | not soluble
MDTYQNMNFHDNINSNIPKNYNSFYEELKKNLNESDILTIAYEVEVLKNIKKINCDEIGKNWDYSFIDSEYGKSTLVILEVGYHLISPYIENNENKKKKLQLFLLLINSMYFPNPYHNANHGATVCHLSKCLAHITDYDSYLNNTYMICYLIASIAHDVGHPGKTNSYLSETNHILSIRYNDMSILENYHCSITFSILQLIGFDFLINNEDTKLVEKNNYTNMRKFIIELIISTDMKLHFEYVDIFKKRKKSQNFDISDTDAINLGTINIKLADIGHTCLKWKDHAKWTMLVSEEFFSQKRVEELHKNKNIDPLNFSNFGKEDNIDEGMIFNYENIYINYINNINNINTYDYSYIKLNFIHHHDFVKSIPSTQVYFFEIIVMPLIKELQSMEKSKKEITQKVLHNLNINLQTWRLIEKNINLFYNTEKMTGTDYYKNLEKQKLLRGIRLLDIAEEDVISLTKNFKEEIKHG | not soluble
MDVFLMIRRHKTTIFTDAKESSTVFELKRIVEGILKRPPDEQRLYKDDQLLDDGKTLGECGFTSQTARPQAPATVGLAFRADDTFEALCIEPFSSPPELPDVMKPQDSGSSANEQAVQ | soluble
MDWGMQSRLSWIFNPKTGKTVMLAFDHGYFQGPTIGLERIDINIAPLFEHADVLMCTRGILRSVVPPATNKPVVLRASGANSILAELSNEAVALSMDDAVRLNSCAVAAQVYIGSEYEHQSIKNIIQLVDAGMKVGMPTMAVTGVGKDMVRDQRYFSLATRIAAEMGAQIIKTYYVEKGFERIVAGCPVPIVIAGGKKLPERETLEMCWQAIDQGASGVDMGRNIFQSDHPVAMMKAVQAVVHHNETADRAYELYLSEKQ | not soluble
